From US20240076375A1 (BEIGENE, published 2024)

How the values were obtained:
[1] = target: T1, Tim-3 (form used in the assay not stated) (human, UniProt Q8TDQ0 22-202, limits assumed); test: SPR, Fab, Test 2
[2] = target: T1, Tim-3 (form used in the assay not …); test: SPR, Fab, Test 1
[3] = target: T1, Tim-3 (form used in the assay not …); test: SPR, Fab, mean of Test 1 and Test 2
Tim-3-mIgG2a = Tim-3-mIgG2a (human; mouse, UniProt Q8TDQ0 22-202); test: ELISA on Tim-3-mIg, absorbance at OD450nm against antibody concentration
[4] = target: T1, Tim-3 (form used in the assay not …); test: ELISA on Tim-3, absorbance at OD450nm against antibody concentration
[5] = target: T2, Human Fc-tagged Tim-3 IgV domain (human, UniProt Q8TDQ0 22-130, limits assumed); test: SPR (BIAcore T-200), Fc-tagged Tim-3 IgV domain captured by anti-human IgG, antibody flowed
T2 construct: not shown: human Fc tag
T2 sequence: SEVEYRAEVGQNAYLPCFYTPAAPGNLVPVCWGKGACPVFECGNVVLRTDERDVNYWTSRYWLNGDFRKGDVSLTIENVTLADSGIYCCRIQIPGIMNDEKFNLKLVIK

Tim-3-his [6] = target: T3, Tim-3-his (human, UniProt Q8TDQ0 22-202, limits assumed); test: SPR (BIAcore T-200), antibody captured by anti-human Fab, Tim-3-his flowed
T3 construct: not shown: his tag

Tim-3-his [7] = target: T3, Tim-3-his; test: BLI (ForteBio Octet), antibody captured on protein A tips, dipped in Tim-3-his solution

B1: hu425-2-2 Fab (Fab, V domains shown)
VH: EVQLVESGGGLVQPGGSLRLSCAASGFTFSRYAMSWVRQAPGKGLEWVAAISSGGSLYYPDSVKGRFTISRDNAKNTLYLQMNSLRAEDTAVYYCARGREADGGYFDYWGQGTLVTVSS
VL: EIVMTQSPATLSVSPGERATLSCRASESVEYYGTSLMQWYQQKPGQAPRLLIYAASNVESGIPARFSGSGSGTEFTLTISSLQSEDFAVYYCQQSLKVPLTFGGGTKVEIK
notes: Fab prepared from the mAb with the Pierce Fab Preparation Kit; Only the variable domains are tied to the name. hu425s were engineered in the human IgG1 format
- Kd [1]: 0.404 nM
- koff [1]: 0.000795 s⁻¹
- kon [1]: 1.97e+06 M⁻¹ s⁻¹
- Kd [2]: 0.434 nM
- koff [2]: 0.00074 s⁻¹
- kon [2]: 1.71e+06 M⁻¹ s⁻¹
- Kd [3]: 0.419 nM

B2: hu425-2-3b (antibody, V domains shown)
VH: EVQLVESGGGLVQPGGSLRLSCAASGFTFSRYAMSWVRQAPGKGLEWVAAISSGGSLYYPDSVKGRFTISRDNAKNTLYLQMNSLRAEDTAVYYCARGREADGGYFDYWGQGTLVTVSS
VL: EIVLTQSPATLSVSPGERATLSCRASESVEYYGTSLMQWYQQKPGQAPRLLIYAASNVESGIPARFSGSGSGTEFTLTISSLQSEDFAVYYCQQSLKVPLTFGGGTKVEIK
notes: Full chains are not tied to the name
- EC50 (read off the curve) (Tim-3-mIgG2a): ~0.01 µg/mL

B3: hu425-2-3b Fab (Fab, V domains shown)
VH: EVQLVESGGGLVQPGGSLRLSCAASGFTFSRYAMSWVRQAPGKGLEWVAAISSGGSLYYPDSVKGRFTISRDNAKNTLYLQMNSLRAEDTAVYYCARGREADGGYFDYWGQGTLVTVSS
VL: EIVLTQSPATLSVSPGERATLSCRASESVEYYGTSLMQWYQQKPGQAPRLLIYAASNVESGIPARFSGSGSGTEFTLTISSLQSEDFAVYYCQQSLKVPLTFGGGTKVEIK
notes: Fab prepared from the mAb with the Pierce Fab Preparation Kit; Only the variable domains are tied to the name
- Kd [1]: 0.366 nM
- koff [1]: 0.00064 s⁻¹
- kon [1]: 1.75e+06 M⁻¹ s⁻¹
- Kd [2]: 0.356 nM
- koff [2]: 0.00057 s⁻¹
- kon [2]: 1.6e+06 M⁻¹ s⁻¹
- Kd [3]: 0.361 nM

B4: hu425-2F-1 (antibody, human IgG1, kappa, V domains shown)
VH: EVQLVESGGGLVQPGGSLRLSCAASGFTFSRYAMSWVRQAPGKGLEWVAAISSGGSLYFPDSVKGRFTISRDNAKNSCYLQMNSLRAEDTAVYYCARGREADAGYFDYWGQGTLVTVSS
VL: DIVLTQSPATLSVSPGERATLSCRASESVEYYGTSLMQWYQQKPGQAPRLLIYAASNVESGVPARFSGSGSGTDFTLTISSLQSEDFAVYYCQQSMKVPLTFGGGTKVEIKR
notes: Single amino acid mutation from hu425-1-1; also called G103A
- binding result [4]: no binding

B5: mu425 (antibody, V domains shown)
VH: EVKLVESGGGLVKPGGSLKLSCAASGFTFSRYAMSWVRQIPEKRLEWVAAISSGGSLYFPDSVKGRFTISRDNARNICYLQMNSLRSDDTAMYYCARGREADGGYFDYWGQGTTLTVSS
VL: DIVLTQSPASLAVSLGQRATISCRASESVEYYGTSLMQWYQQKPGQPPKLLIYAASNVESGVPARFSGSGSGTDFSLNIHPVEEDDIAMYFCQQSMKVPLTFGAGTKLELK
notes: Murine hybridoma mAb, purified
- Kd [5]: 0.058 nM
- koff [5]: 9.33e-05 s⁻¹
- kon [5]: 1.59e+06 M⁻¹ s⁻¹

B6: ch425 Fab (Fab, V domains shown)
VH: EVKLVESGGGLVKPGGSLKLSCAASGFTFSRYAMSWVRQIPEKRLEWVAAISSGGSLYFPDSVKGRFTISRDNARNICYLQMNSLRSDDTAMYYCARGREADGGYFDYWGQGTTLTVSS
VL: DIVLTQSPASLAVSLGQRATISCRASESVEYYGTSLMQWYQQKPGQPPKLLIYAASNVESGVPARFSGSGSGTDFSLNIHPVEEDDIAMYFCQQSMKVPLTFGAGTKLELKR
notes: Fab prepared from the mAb with the Pierce Fab Preparation Kit
- Kd [2]: 0.122 nM
- koff [2]: 0.000204 s⁻¹
- kon [2]: 1.67e+06 M⁻¹ s⁻¹

B7: hu425-1-1 Fab (Fab, V domains shown)
VH: EVQLVESGGGLVQPGGSLRLSCAASGFTFSRYAMSWVRQAPGKGLEWVAAISSGGSLYFPDSVKGRFTISRDNAKNSCYLQMNSLRAEDTAVYYCARGREADGGYFDYWGQGTLVTVSS
VL: DIVLTQSPATLSVSPGERATLSCRASESVEYYGTSLMQWYQQKPGQAPRLLIYAASNVESGVPARFSGSGSGTDFTLTISSLQSEDFAVYYCQQSMKVPLTFGGGTKVEIKR
notes: as for B6
- Kd [1]: 0.346 nM
- koff [1]: 0.000435 s⁻¹
- kon [1]: 1.26e+06 M⁻¹ s⁻¹
- Kd [2]: 0.159 nM
- koff [2]: 0.000108 s⁻¹
- kon [2]: 679000 M⁻¹ s⁻¹
- Kd [3]: 0.253 nM

B8: Hu425-2-3b in human IgG4 format with S228P mutation (antibody, V domains shown)
VH: EVQLVESGGGLVQPGGSLRLSCAASGFTFSRYAMSWVRQAPGKGLEWVAAISSGGSLYYPDSVKGRFTISRDNAKNTLYLQMNSLRAEDTAVYYCARGREADGGYFDYWGQGTLVTVSS
VL: EIVLTQSPATLSVSPGERATLSCRASESVEYYGTSLMQWYQQKPGQAPRLLIYAASNVESGIPARFSGSGSGTEFTLTISSLQSEDFAVYYCQQSLKVPLTFGGGTKVEIK
- Kd (Tim-3-his [6]): 1.47 nM
- koff (Tim-3-his [6]): 0.000778 s⁻¹
- kon (Tim-3-his [6]): 528000 M⁻¹ s⁻¹

B9: Ab1 in human IgG4 format with S228P mutation (antibody, V domains shown)
VH: QVQLVQSGAEVKKPGSSVKVSCKASGYTFTSYNMHWVRQAPGQGLEWMGDIYPGNGDTSYNQKFKGRVTITADKSTSTVYMELSSLRSEDTAVYYCARVGGAFPMDYWGQGTTVTVSS
VL: AIQLTQSPSSLSASVGDRVTITCRASESVEYYGTSLMQWYQQKPGKAPKLLIYAASNVESGVPSRFSGSGSGTDFTLTISSLQPEDFATYFCQQSRKDPSTFGGGTKVEIK
notes: Known Tim-3 antibody, generated in human IgG4 format with S228P mutation
- Kd (Tim-3-his [6]): 0.271 nM
- koff (Tim-3-his [6]): 0.00012 s⁻¹
- kon (Tim-3-his [6]): 444000 M⁻¹ s⁻¹

B10: Ab2 in human IgG4 format with S228P mutation (antibody, V domains shown)
VH: EVQLLESGGGLVQPGGSLRLSCAAASGFTFSSYDMSWVRQAPGKGLDWVSTISGGGTYTYYQDSVKGRFTISRDNSKNTLYLQMNSLRAEDTAVYYCASMDYWGQGTTVTVSS
VL: DIQMTQSPSSLSASVGDRVTITCRASQSIRRYLNWYHQKPGKAPKLLIYGASTLQSGVPSRFSGSGSGTDFTLTISSLQPEDFAVYYCQQSHSAPLTFGGGTKVEIKR
notes: as for B9
- Kd (Tim-3-his [6]): 19.4 nM
- koff (Tim-3-his [6]): 0.0122 s⁻¹
- kon (Tim-3-his [6]): 627000 M⁻¹ s⁻¹

B11: hybrid antibody 425 HC/Ab1 LC (antibody, V domains shown)
VH: EVQLVESGGGLVQPGGSLRLSCAASGFTFSRYAMSWVRQAPGKGLEWVAAISSGGSLYYPDSVKGRFTISRDNAKNTLYLQMNSLRAEDTAVYYCARGREADGGYFDYWGQGTLVTVSS
VL: AIQLTQSPSSLSASVGDRVTITCRASESVEYYGTSLMQWYQQKPGKAPKLLIYAASNVESGVPSRFSGSGSGTDFTLTISSLQPEDFATYFCQQSRKDPSTFGGGTKVEIK
- binding result (Tim-3-his [7]): no binding
